In assay [1] the target is human Glucagon receptor (GCGR) (human, UniProt P47871 26-477). Kind of assay: cell-based or functional assay.
For assay [2], the target named is human GLP-1 receptor (GLP1R) (human, UniProt P43220 24-463). The assay is described as follows: cell-based or functional assay.

Numbered stars: 1 amine (or outer) side, 2 acyl side, 3 side chain; on linkers, the order of the positions; unused ones are H or OH. Square brackets hold non-standard residues; d marks the D form. Side chains are listed from the residue outwards. Ends that are not written are not given here. * marks the point of attachment. C16 diacid = O=C(O)CCCCCCCCCCCCCCC(=O)*; γGlu = O=C(O)[C@H](CCC(=O)[*:2])N[*:1]; Met(O2) = CS(=O)(=O)CC[C@H](N)C(=O)O; αMeD = C[C@](N)(CC(=O)O)C(=O)O; AEEA = NCCOCCOCC(=O)O; Aib = CC(C)(N)C(=O)O

Sequence of human Glucagon receptor (GCGR) (P47871 26-477): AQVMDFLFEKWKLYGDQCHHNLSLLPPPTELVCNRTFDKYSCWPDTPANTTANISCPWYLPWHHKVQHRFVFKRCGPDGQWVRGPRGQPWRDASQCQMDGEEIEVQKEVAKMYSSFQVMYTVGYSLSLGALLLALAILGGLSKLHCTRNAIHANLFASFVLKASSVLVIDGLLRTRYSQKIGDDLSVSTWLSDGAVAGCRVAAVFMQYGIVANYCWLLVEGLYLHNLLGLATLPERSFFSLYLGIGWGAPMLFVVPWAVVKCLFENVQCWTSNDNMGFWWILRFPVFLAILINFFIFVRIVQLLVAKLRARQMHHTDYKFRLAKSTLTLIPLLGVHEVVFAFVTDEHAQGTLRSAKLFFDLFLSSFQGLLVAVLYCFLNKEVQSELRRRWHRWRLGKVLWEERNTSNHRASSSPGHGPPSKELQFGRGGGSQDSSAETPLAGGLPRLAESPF

B1: TP828 (peptide)
peptide: H[Aib]QGTFTSDYSKYLD[Aib]RAAQDFVK([AEEA-AEEA-γGlu-C16 diacid])WL[Met(O2)][γGlu]T-NH2
modifications: N-terminus assumed
SMILES: CC(C)C[C@H](NC(=O)[C@H](Cc1c[nH]c2ccccc12)NC(=O)[C@H](CCCCNC(=O)COCCOCCNC(=O)COCCOCCNC(=O)CC[C@H](NC(=O)CCCCCCCCCCCCCCC(=O)O)C(=O)O)NC(=O)[C@@H](NC(=O)[C@H](Cc1ccccc1)NC(=O)[C@H](CC(=O)O)NC(=O)[C@H](CCC(N)=O)NC(=O)[C@H](C)NC(=O)[C@H](C)NC(=O)[C@H](CCCNC(=N)N)NC(=O)C(C)(C)NC(=O)[C@H](CC(=O)O)NC(=O)[C@H](CC(C)C)NC(=O)[C@H](Cc1ccc(O)cc1)NC(=O)[C@H](CCCCN)NC(=O)[C@H](CO)NC(=O)[C@H](Cc1ccc(O)cc1)NC(=O)[C@H](CC(=O)O)NC(=O)[C@H](CO)NC(=O)[C@@H](NC(=O)[C@H](Cc1ccccc1)NC(=O)[C@@H](NC(=O)CNC(=O)[C@H](CCC(N)=O)NC(=O)C(C)(C)NC(=O)[C@@H](N)Cc1c[nH]cn1)[C@@H](C)O)[C@@H](C)O)C(C)C)C(=O)N[C@@H](CCS(C)(=O)=O)C(=O)N[C@@H](CCC(=O)N[C@H](C(N)=O)[C@@H](C)O)C(=O)O
As for B1, the “GCGR EC50 human” value in assay [1] is 228 pM. Further, in assay [2], the “GLP1R EC50 human” value came out at 587 pM.

B2: TP815 (peptide)
peptide: H[Aib]QGTFTSDYSKYLD[Aib]RAAQDFVK([AEEA-AEEA-γGlu-C16 diacid])WL[Met(O2)]ET-NH2
modifications: N-terminus assumed
SMILES: CC(C)C[C@H](NC(=O)[C@H](Cc1c[nH]c2ccccc12)NC(=O)[C@H](CCCCNC(=O)COCCOCCNC(=O)COCCOCCNC(=O)CC[C@H](NC(=O)CCCCCCCCCCCCCCC(=O)O)C(=O)O)NC(=O)[C@@H](NC(=O)[C@H](Cc1ccccc1)NC(=O)[C@H](CC(=O)O)NC(=O)[C@H](CCC(N)=O)NC(=O)[C@H](C)NC(=O)[C@H](C)NC(=O)[C@H](CCCNC(=N)N)NC(=O)C(C)(C)NC(=O)[C@H](CC(=O)O)NC(=O)[C@H](CC(C)C)NC(=O)[C@H](Cc1ccc(O)cc1)NC(=O)[C@H](CCCCN)NC(=O)[C@H](CO)NC(=O)[C@H](Cc1ccc(O)cc1)NC(=O)[C@H](CC(=O)O)NC(=O)[C@H](CO)NC(=O)[C@@H](NC(=O)[C@H](Cc1ccccc1)NC(=O)[C@@H](NC(=O)CNC(=O)[C@H](CCC(N)=O)NC(=O)C(C)(C)NC(=O)[C@@H](N)Cc1c[nH]cn1)[C@@H](C)O)[C@@H](C)O)C(C)C)C(=O)N[C@@H](CCS(C)(=O)=O)C(=O)N[C@@H](CCC(=O)O)C(=O)N[C@H](C(N)=O)[C@@H](C)O
B2: the “GCGR EC50 human” value in assay [1] turned out to be 84 pM. The “GLP1R EC50 human” value in assay [2] amounted to 120 pM.

B3: TP827 (peptide)
peptide: H[Aib]QGTFTSDYSKYLDARAAQK([AEEA-AEEA-γGlu-C16 diacid])FVQWL[Met(O2)][γGlu]T-NH2
modifications: N-terminus assumed
SMILES: CC(C)C[C@H](NC(=O)[C@H](Cc1ccc(O)cc1)NC(=O)[C@H](CCCCN)NC(=O)[C@H](CO)NC(=O)[C@H](Cc1ccc(O)cc1)NC(=O)[C@H](CC(=O)O)NC(=O)[C@H](CO)NC(=O)[C@@H](NC(=O)[C@H](Cc1ccccc1)NC(=O)[C@@H](NC(=O)CNC(=O)[C@H](CCC(N)=O)NC(=O)C(C)(C)NC(=O)[C@@H](N)Cc1c[nH]cn1)[C@@H](C)O)[C@@H](C)O)C(=O)N[C@@H](CC(=O)O)C(=O)N[C@@H](C)C(=O)N[C@@H](CCCNC(=N)N)C(=O)N[C@@H](C)C(=O)N[C@@H](C)C(=O)N[C@@H](CCC(N)=O)C(=O)N[C@@H](CCCCNC(=O)COCCOCCNC(=O)COCCOCCNC(=O)CC[C@H](NC(=O)CCCCCCCCCCCCCCC(=O)O)C(=O)O)C(=O)N[C@@H](Cc1ccccc1)C(=O)N[C@H](C(=O)N[C@@H](CCC(N)=O)C(=O)N[C@@H](Cc1c[nH]c2ccccc12)C(=O)N[C@@H](CC(C)C)C(=O)N[C@@H](CCS(C)(=O)=O)C(=O)N[C@@H](CCC(=O)N[C@H](C(N)=O)[C@@H](C)O)C(=O)O)C(C)C
For the molecule B3, in assay [1], the “GCGR EC50 human” value worked out at 133 pM. Besides, the “GLP1R EC50 human” value in assay [2] turned out to be 81 pM.

B4: TP826 (peptide)
peptide: H[Aib]QGTFTSDYSKYLDARAAK([AEEA-AEEA-γGlu-C16 diacid])DFVQWL[Met(O2)][γGlu]T-NH2
modifications: N-terminus assumed
SMILES: CC(C)C[C@H](NC(=O)[C@H](Cc1ccc(O)cc1)NC(=O)[C@H](CCCCN)NC(=O)[C@H](CO)NC(=O)[C@H](Cc1ccc(O)cc1)NC(=O)[C@H](CC(=O)O)NC(=O)[C@H](CO)NC(=O)[C@@H](NC(=O)[C@H](Cc1ccccc1)NC(=O)[C@@H](NC(=O)CNC(=O)[C@H](CCC(N)=O)NC(=O)C(C)(C)NC(=O)[C@@H](N)Cc1c[nH]cn1)[C@@H](C)O)[C@@H](C)O)C(=O)N[C@@H](CC(=O)O)C(=O)N[C@@H](C)C(=O)N[C@@H](CCCNC(=N)N)C(=O)N[C@@H](C)C(=O)N[C@@H](C)C(=O)N[C@@H](CCCCNC(=O)COCCOCCNC(=O)COCCOCCNC(=O)CC[C@H](NC(=O)CCCCCCCCCCCCCCC(=O)O)C(=O)O)C(=O)N[C@@H](CC(=O)O)C(=O)N[C@@H](Cc1ccccc1)C(=O)N[C@H](C(=O)N[C@@H](CCC(N)=O)C(=O)N[C@@H](Cc1c[nH]c2ccccc12)C(=O)N[C@@H](CC(C)C)C(=O)N[C@@H](CCS(C)(=O)=O)C(=O)N[C@@H](CCC(=O)N[C@H](C(N)=O)[C@@H](C)O)C(=O)O)C(C)C
As to B4, the “GCGR EC50 human” value in assay [1] stood at 670 pM. In assay [2], the “GLP1R EC50 human” value turned out to be 253 pM.

B5: TP813 (peptide)
peptide: H[Aib]QGTFTSDYSKYLDARAAQEFVK([AEEA-AEEA-γGlu-C16 diacid])WL[Met(O2)]DT-NH2
modifications: N-terminus assumed
SMILES: CC(C)C[C@H](NC(=O)[C@H](Cc1ccc(O)cc1)NC(=O)[C@H](CCCCN)NC(=O)[C@H](CO)NC(=O)[C@H](Cc1ccc(O)cc1)NC(=O)[C@H](CC(=O)O)NC(=O)[C@H](CO)NC(=O)[C@@H](NC(=O)[C@H](Cc1ccccc1)NC(=O)[C@@H](NC(=O)CNC(=O)[C@H](CCC(N)=O)NC(=O)C(C)(C)NC(=O)[C@@H](N)Cc1c[nH]cn1)[C@@H](C)O)[C@@H](C)O)C(=O)N[C@@H](CC(=O)O)C(=O)N[C@@H](C)C(=O)N[C@@H](CCCNC(=N)N)C(=O)N[C@@H](C)C(=O)N[C@@H](C)C(=O)N[C@@H](CCC(N)=O)C(=O)N[C@@H](CCC(=O)O)C(=O)N[C@@H](Cc1ccccc1)C(=O)N[C@H](C(=O)N[C@@H](CCCCNC(=O)COCCOCCNC(=O)COCCOCCNC(=O)CC[C@H](NC(=O)CCCCCCCCCCCCCCC(=O)O)C(=O)O)C(=O)N[C@@H](Cc1c[nH]c2ccccc12)C(=O)N[C@@H](CC(C)C)C(=O)N[C@@H](CCS(C)(=O)=O)C(=O)N[C@@H](CC(=O)O)C(=O)N[C@H](C(N)=O)[C@@H](C)O)C(C)C
For the molecule B5, in assay [1], the “GCGR EC50 human” value was 210 pM. The “GLP1R EC50 human” value in assay [2] worked out at 140 pM.
The like results for H[Aib]QGTFTSDYSKYLDERAAK([AEEA-AEEA-γGlu-C20‑OH])DFVQWL[Met(O2)][αMeD]T-NH2 [TP589] were, in that order, 19800 pM and 2070 pM.

B6: TP825 (peptide)
peptide: H[Aib]QGTFTSDYSKYLDARAAQK([AEEA-AEEA-γGlu-C16 diacid])FVQWL[Met(O2)]ET-NH2
modifications: N-terminus assumed
SMILES: CC(C)C[C@H](NC(=O)[C@H](Cc1ccc(O)cc1)NC(=O)[C@H](CCCCN)NC(=O)[C@H](CO)NC(=O)[C@H](Cc1ccc(O)cc1)NC(=O)[C@H](CC(=O)O)NC(=O)[C@H](CO)NC(=O)[C@@H](NC(=O)[C@H](Cc1ccccc1)NC(=O)[C@@H](NC(=O)CNC(=O)[C@H](CCC(N)=O)NC(=O)C(C)(C)NC(=O)[C@@H](N)Cc1c[nH]cn1)[C@@H](C)O)[C@@H](C)O)C(=O)N[C@@H](CC(=O)O)C(=O)N[C@@H](C)C(=O)N[C@@H](CCCNC(=N)N)C(=O)N[C@@H](C)C(=O)N[C@@H](C)C(=O)N[C@@H](CCC(N)=O)C(=O)N[C@@H](CCCCNC(=O)COCCOCCNC(=O)COCCOCCNC(=O)CC[C@H](NC(=O)CCCCCCCCCCCCCCC(=O)O)C(=O)O)C(=O)N[C@@H](Cc1ccccc1)C(=O)N[C@H](C(=O)N[C@@H](CCC(N)=O)C(=O)N[C@@H](Cc1c[nH]c2ccccc12)C(=O)N[C@@H](CC(C)C)C(=O)N[C@@H](CCS(C)(=O)=O)C(=O)N[C@@H](CCC(=O)O)C(=O)N[C@H](C(N)=O)[C@@H](C)O)C(C)C
For the molecule B6, the “GCGR EC50 human” value in assay [1] is 70 pM. Further, the “GLP1R EC50 human” value in assay [2] was 36 pM.

B7: TP814 (peptide)
peptide: H[Aib]QGTFTSDYSKYLDARAAK([AEEA-AEEA-γGlu-C16 diacid])DFVQWL[Met(O2)]ET-NH2
modifications: N-terminus assumed
SMILES: CC(C)C[C@H](NC(=O)[C@H](Cc1ccc(O)cc1)NC(=O)[C@H](CCCCN)NC(=O)[C@H](CO)NC(=O)[C@H](Cc1ccc(O)cc1)NC(=O)[C@H](CC(=O)O)NC(=O)[C@H](CO)NC(=O)[C@@H](NC(=O)[C@H](Cc1ccccc1)NC(=O)[C@@H](NC(=O)CNC(=O)[C@H](CCC(N)=O)NC(=O)C(C)(C)NC(=O)[C@@H](N)Cc1c[nH]cn1)[C@@H](C)O)[C@@H](C)O)C(=O)N[C@@H](CC(=O)O)C(=O)N[C@@H](C)C(=O)N[C@@H](CCCNC(=N)N)C(=O)N[C@@H](C)C(=O)N[C@@H](C)C(=O)N[C@@H](CCCCNC(=O)COCCOCCNC(=O)COCCOCCNC(=O)CC[C@H](NC(=O)CCCCCCCCCCCCCCC(=O)O)C(=O)O)C(=O)N[C@@H](CC(=O)O)C(=O)N[C@@H](Cc1ccccc1)C(=O)N[C@H](C(=O)N[C@@H](CCC(N)=O)C(=O)N[C@@H](Cc1c[nH]c2ccccc12)C(=O)N[C@@H](CC(C)C)C(=O)N[C@@H](CCS(C)(=O)=O)C(=O)N[C@@H](CCC(=O)O)C(=O)N[C@H](C(N)=O)[C@@H](C)O)C(C)C
Consider B7, for which the “GCGR EC50 human” value in assay [1] came out at 156 pM. For the same molecule, the “GLP1R EC50 human” value in assay [2] came to 78 pM.
Take H[Aib]QGTFTSDYSKYLD[Aib]RAAK([AEEA-AEEA-γGlu-C20‑OH])DFVQWL[Met(O2)]DT-NH2 [TP564]: the “GCGR EC50 human” value in assay [1] was 1250 pM. Moreover, the “GLP1R EC50 human” value in assay [2] turned out to be 1220 pM.

The values are drawn from patent US20200270325A1 (Merck Sharp & Dohme, published 2020).
